Where no end group is shown, it is not given here.
What was measured:
[1] = biological target: bovine serum albumin (bovine) (UniProt P02769); assay: affinity chromatography, peptide immobilized on Thiopropyl Sepharose 6B, pH 5.5
[2] = biological target: bovine serum albumin (bovine) (UniProt P02769); assay: affinity chromatography, peptide immobilized on Thiopropyl Sepharose 6B, pH 6.0
hIgG = assay: Affinity chromatography, pulse injection of hIgG on peptide-coupled Thiopropyl Sepharose 6B column; format: binding, human
Procedure: (§1) Peptide powders purchased from GL Biochem Ltd. (Shanghai, China) had been purified by high performance liquid chromatography (HPLC) with a purity of 96.36%. 1 g of resin (Thiopropyl Sepharose 6B, purchased from GE Healthcare) was weighed and washed for 15 min with 200 mL of deionized water in a buchner funnel. After being filtered and getting rid of water, two aliquots of 1.0 g of drained gel were transferred into two 25-mL Erlenmeyer flasks, respectively. Then 6 mL and 10.7 mL of linking buffer (0.1 M Tris-HCl, pH 7.5, 0.5 M NaCl and 1 mM EDTA) were added to the two flasks respectively, to fully pre-equilibrate the gels. […] The peptides were fully mixed with the gels in corresponding flasks and initial peptide concentrations of 1.0 mg/mL were obtained. The mixtures were reacting in a shaking bath at a rate of 180 rpm, at 25° C. for 2 h. 500 μL of supernatant was acquired each hour for analyzing the residue peptide content in the reaction solution with reversed-phase high pressure liquid chromatography (RP-HPLC). […] After the reaction was finished, the reaction system was centrifuged and the supernatant was removed, then the gel was washed repeatedly with washing buffer (10 mM PBS, pH 7.2, 150 mM NaCl) in a buchner funnel to get rid of the free peptides. Finally, equilibriation buffer (20 mmol/L citrate buffers, pH 5.0-5.5; or 20 mmol/L PBS buffers, pH 5.5-6.0) was used to suspend the gel to 1 mL, and after being degassed, the gel was slowly loaded into the glass column (Tricorn chromatogram column, Tricorn 5×5, GE healthcare). The column was first washed with equilibration buffer at 0.1 mL/min, and then the speed of the buffer was increased to 0.2 mL/min when the column pressure was stable, and the speed of the buffer was increased according to above operation till it reached 1.0 mL/min.
(1) Equilibration: the affinity column was washed with equilibration buffer until a stable baseline was reached. The flow rate of buffer was 0.5 mL/min, keep washing another five column volumes (CVs) before sample injection. […]

[3] = biological target: bovine serum albumin (BSA) (Bos taurus, UniProt P02769); assay: Affinity chromatography, BSA on peptide-coupled Thiopropyl Sepharose 6B column; format: binding
Chain of bovine serum albumin (BSA) (P02769 25-607): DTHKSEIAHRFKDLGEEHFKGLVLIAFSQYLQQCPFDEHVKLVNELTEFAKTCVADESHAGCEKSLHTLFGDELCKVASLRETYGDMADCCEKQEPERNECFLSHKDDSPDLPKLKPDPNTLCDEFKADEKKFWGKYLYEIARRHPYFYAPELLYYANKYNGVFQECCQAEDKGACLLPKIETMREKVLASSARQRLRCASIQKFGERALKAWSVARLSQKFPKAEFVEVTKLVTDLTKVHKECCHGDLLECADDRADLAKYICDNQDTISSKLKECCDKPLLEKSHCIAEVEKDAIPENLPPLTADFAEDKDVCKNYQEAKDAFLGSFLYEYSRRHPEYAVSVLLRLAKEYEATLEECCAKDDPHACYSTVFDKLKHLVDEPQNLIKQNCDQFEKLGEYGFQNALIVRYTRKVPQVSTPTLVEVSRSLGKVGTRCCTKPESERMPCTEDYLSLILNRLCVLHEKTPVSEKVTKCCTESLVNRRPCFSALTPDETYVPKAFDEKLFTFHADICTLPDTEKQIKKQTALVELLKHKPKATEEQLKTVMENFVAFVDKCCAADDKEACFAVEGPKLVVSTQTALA
Procedure: as §1
(1) Equilibration: the affinity column was washed with equilibration buffer until a stable baseline was reached. The flow rate of buffer was 0.5 mL/min, keep washing another five column volumes (CVs) before sample injection.
(2) Sample injection: unless specifically stated, all protein samples were prepared by equilibration buffer. After sample injection, the column was equilibrated with 5-10 CVs of equilibration buffer (20 mmol/L citrate buffer, pH≤5.5; or 20 mmol/L PBS buffer, pH≥5.5). The sample loading amount was 100 μL, protein sample concentration was 1.0 mg/mL, and the flow rate was 0.5 mL/min.
(3) Elution: the column was washed with 5-10 CVs of elution buffer, and the flow rate was 0.8 mL/min.
(4) Storage: first 10 CVs of deionized water was used to wash the column, followed by another 10 CVs of 20% ethanol solution. Then the affinity gel was stored in this solution. All buffers should be filtered through a filter and degassed before use.

Chain of bovine serum albumin (bovine) (P02769 25-607 limits assumed): as the sequence (P02769 25-607) above

Sequence	fraction of loaded protein bound (fraction of BSA) [1]	fraction of loaded protein bound (fraction of BSA) [2]	binding of hIgG by immobilised peptide ligand (hIgG; pH 5.0-6.0)	binding of BSA by immobilised peptide ligand ([3]; pH 5.5)	binding of hIgG by immobilised peptide ligand (hIgG; pH 5.5-7.0)	binding of hIgG by immobilised peptide ligand (hIgG; pH 6.0, 20 mM PBS)	binding of BSA by immobilised peptide ligand (fraction of BSA bound) ([3]; pH 6.0)	binding of BSA by immobilised peptide ligand ([3]; pH 6.5)
FYCHWALE peptide ligand	0.5	0.333						
FYWHCLDE (not fully specified (residue 5)) [synthesized and immobilized on Thiopropyl Sepharose 6B]			strong binding	large binding				
FYCHWALE (not fully specified (residue 3)) [synthesized and immobilized on Thiopropyl Sepharose 6B]				about half	could bind a lot of hIgGs	could bind almost all hIgGs	⅓	trace
